IntAct's records for PubMed 20972459

B1: WW domain-binding protein 2 (Homo sapiens), Q969T9 (parent)
chain: MALNKNHSEGGGVIVNNTESILMSYDHVELTFNDMKNVPEAFKGTKKGTVYLTPYRVIFLSKGKDAMQSFMMPFYLMKDCEIKQPVFGANYIKGTVKAEAGGGWEGSASYKLTFTAGGAIEFGQRMLQVASQASRGEVPSGAYGYSYMPSGAYVYPPPVANGMYPCPPGYPYPPPPPEFYPGPPMMDGAMGYVQPPPPPYPGPMEPPVSGPDVPSTPAAEAKAAEAAASAYYNPGNPHNVYMPTSQPPPPPYYPPEDKKTQ

Variants of: B1
Details: with wwtr1_human WWTR1, Q9GZV5
Sequence of wwtr1_human WWTR1, Q9GZV5 (Q9GZV5 whole entry): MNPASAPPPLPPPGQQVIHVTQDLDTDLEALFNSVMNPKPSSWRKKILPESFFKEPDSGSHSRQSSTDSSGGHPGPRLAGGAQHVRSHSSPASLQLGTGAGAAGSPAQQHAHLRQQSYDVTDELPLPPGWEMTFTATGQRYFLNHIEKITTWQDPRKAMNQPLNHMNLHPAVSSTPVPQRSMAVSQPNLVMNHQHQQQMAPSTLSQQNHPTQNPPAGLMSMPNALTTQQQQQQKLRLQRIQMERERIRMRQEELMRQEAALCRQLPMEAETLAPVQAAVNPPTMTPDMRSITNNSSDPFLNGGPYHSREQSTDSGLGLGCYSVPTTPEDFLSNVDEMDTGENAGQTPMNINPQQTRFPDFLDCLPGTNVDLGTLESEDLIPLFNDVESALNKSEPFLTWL

Row | Variant | effect of a mutation on the interaction
1 | MALNKNHSEGGGVIVNNTESILMSYDHVELTFNDMKNVPEAFKGTKKGTVYLTPYRVIFLSKGKDAMQSFMMPFYLMKDCEIKQPVFGANYIKGTVKAEAGGGWEGSASYKLTFTAGGAIEFGQRMLQVASQASRGEVPSGAYGYSYMPSGAYVYPPPVANGMYPCPPGYPYPPPPPEFYPGPPMMDGAMGYVQPPPPPAPGPMEPPVSGPDVPSTPAAEAKAAEAAASAYYNPGNPHNVYMPTSQPPPPPYYPPEDKKTQ [Y200A] | disrupting interaction
